The values that follow are results of earlier work, collected in paper PMC10287730.

What is called Kd is the constant that tells how readily two partners part at equilibrium.

The series has as its target TLR4 (Homo sapiens) (UniProt O00206).

TLR4 (Homo sapiens), sequence (O00206 24-839): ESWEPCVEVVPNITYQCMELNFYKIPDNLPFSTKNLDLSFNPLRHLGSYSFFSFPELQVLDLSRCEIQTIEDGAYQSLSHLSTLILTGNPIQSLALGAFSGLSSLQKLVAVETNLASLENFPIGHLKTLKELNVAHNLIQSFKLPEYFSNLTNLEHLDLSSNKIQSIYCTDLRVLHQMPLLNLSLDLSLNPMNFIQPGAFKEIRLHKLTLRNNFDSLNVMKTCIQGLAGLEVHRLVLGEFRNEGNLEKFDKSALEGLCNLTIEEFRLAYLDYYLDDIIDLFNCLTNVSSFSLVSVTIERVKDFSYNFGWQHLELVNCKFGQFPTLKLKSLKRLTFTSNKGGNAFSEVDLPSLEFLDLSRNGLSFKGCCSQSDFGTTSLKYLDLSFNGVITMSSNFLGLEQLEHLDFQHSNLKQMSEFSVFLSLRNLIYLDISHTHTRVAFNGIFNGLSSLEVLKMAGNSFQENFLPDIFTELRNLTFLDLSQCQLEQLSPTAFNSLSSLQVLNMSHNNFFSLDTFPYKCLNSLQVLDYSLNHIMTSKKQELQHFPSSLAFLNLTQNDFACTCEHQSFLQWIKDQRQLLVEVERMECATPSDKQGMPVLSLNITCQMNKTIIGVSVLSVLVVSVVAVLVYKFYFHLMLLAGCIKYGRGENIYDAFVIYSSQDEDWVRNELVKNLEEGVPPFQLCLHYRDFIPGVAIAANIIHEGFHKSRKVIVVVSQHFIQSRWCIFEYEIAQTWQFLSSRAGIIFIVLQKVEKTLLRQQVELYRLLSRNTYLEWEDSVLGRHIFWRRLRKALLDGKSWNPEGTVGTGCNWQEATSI
Galectin-3, sequence (P17931 2-250): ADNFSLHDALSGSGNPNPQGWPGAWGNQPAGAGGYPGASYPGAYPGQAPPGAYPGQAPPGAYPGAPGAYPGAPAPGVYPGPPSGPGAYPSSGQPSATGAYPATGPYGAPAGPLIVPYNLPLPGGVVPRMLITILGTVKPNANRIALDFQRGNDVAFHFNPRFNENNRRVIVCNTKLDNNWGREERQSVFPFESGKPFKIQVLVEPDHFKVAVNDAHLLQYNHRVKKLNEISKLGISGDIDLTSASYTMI

Turning to Galectin-3 (from UniProt P17931), the Kd was 1000 nM.
